Molecular target: C3b (biotinylated, captured site-specifically on a streptavidin chip) (UniProt P01024)
Assay: SPR (Biacore 3000), single-cycle kinetics, biotinylated C3b on streptavidin chip, peptide as analyte, 1:1 Langmuir fit

Substance | Kd [nM] | koff [s⁻¹] | kon [M⁻¹ s⁻¹]
Peptide 9: Tyr(Me)-Ile-[Cys-Val-Trp(Me)-Gln-Asp-Trp-Sar-Ala-His-Arg-Cys]-mIle-NH2 | – | 0.0026 | 2.3e+06
Peptide 18: D-Ala-Ile-[Cys-Val-Trp(Me)-Gln-Asp-Trp-Sar-Ala-His-Arg-Cys]-mIle-NH2 | 2.5 | 0.0034 | 1.4e+06

More lines, in order of falling Kd, values ahead:

Kd [nM] | koff [s⁻¹] | kon [M⁻¹ s⁻¹] | Substance
1.5 | 0.0027 | 1.8e+06 | Peptide 17: D-Cha-Ile-[Cys-Val-Trp(Me)-Gln-Asp-Trp-Sar-Ala-His-Arg-Cys]-mIle-NH2
1.2 | 0.0024 | 2e+06 | Peptide 16: D-Trp-Ile-[Cys-Val-Trp(Me)-Gln-Asp-Trp-Sar-Ala-His-Arg-Cys]-mIle-NH2
1.1 | 0.0026 | 2.3e+06 | Peptide 15: D-Phe-Ile-[Cys-Val-Trp(Me)-Gln-Asp-Trp-Sar-Ala-His-Arg-Cys]-mIle-NH2

Source: patent US20210032291A1, “Compstatin Analogs With Improved Pharmacokinetic Properties” (The Trustees of the University of Pennsylvania, priority 2011, published 2021)
